Source: patent US20240285753A1 (DUKE UNIVERSITY, published 2024)

Legend:
[1] = biological target: T1, SARS-CoV-2 D614G spike on infected cells (SARS-CoV-2, UniProt P0DTC2 14-1273); experiment: flow cytometry, infected cells, % infected cells bound
T1 construct: whole, on cells

[2] = biological target: T1, SARS-CoV-2 D614G spike on infected cells; experiment: flow cytometry on infected Vero E6 cells
S2hlx-Ex6 = biological target: T2, S2hlx-Ex6; experiment: ELISA, coated antigen, mAb titrated
T2 construct: backbone grafting design
T2 chain: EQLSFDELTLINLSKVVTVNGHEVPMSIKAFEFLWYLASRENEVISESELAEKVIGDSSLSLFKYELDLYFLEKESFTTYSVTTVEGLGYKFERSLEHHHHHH

B1: DH1498 (antibody, V domains shown)
VH: QVQLQESGPGLVKPSETLSLTCAVSGGSVSSDTYYWSWIRQPPGKGLEWIGYIYNSGSTNYNPSLKSRVTISVDTSKSQFSLNLGSVTAADTAVYYCAREGAGTYPPKNDAFDIWGQGTLVTVSS
VL: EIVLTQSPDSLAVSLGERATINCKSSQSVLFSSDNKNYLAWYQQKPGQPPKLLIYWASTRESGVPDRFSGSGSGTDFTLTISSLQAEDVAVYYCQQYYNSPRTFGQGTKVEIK
binding result [1]: no binding (tested: 50 µg/mL)

B2: DH1501.2 (antibody, V domains shown)
VH: EVQLVESGAEVKKPGASVRLSCKASGDTFNNKYVHWVRQAPGQGLEWMGLINPSGSGTAFAQKFQGRVSMTRDTSTRTVYLGLTSLTYEDTAVYYCARMSRAGTFDIWDQGTMVTVSS
VL: EIVLTQSPGTLSLSPGDRATLSCRASENVGTSYLAWYQQKPGQAPRLLISGTSSRATGVPDRFSGSGSGRDFTLTISRLEPEDFAVYYCQQYGSSPPRYTFGQGTKLDMK
binding result [2]: binds

B3: DH1501.1 (antibody, V domains shown)
VH: EVQLVESGAEVKKPGASVRVSCKASGFTFTDHYMHWVRQAPGQGLEWMGLINPTGVNTFYAQNFRGRVTMTRDTSTKTDYLEVRSLTSQDTAMYYCARMSRYGAFDIWGQGTMVTVSL
VL: EIVLTQSPGTLSLSPGERATLSCRASQSVGSGYLAWYQQKPGQAPRLLIYGASVRATGIPDRFSGSGSGTDFSLTINRVEPEDFAMYYCQNYGSSPPRYTFGQGTKLEIK
binding result [2]: binds

B4: S2P6 mAb (antibody, V domains shown)
VH: EVQLVQSGAEVKKPGASVKVSCKASGYTFTSQYMHWVRQAPGQGLEWIGIINPSGVHTSYAQKFQGRVTLTRDTSTSTLYMELSSLRSEDTAVYYCARGSPKGAFDYWGQGTLVTVSS
VL: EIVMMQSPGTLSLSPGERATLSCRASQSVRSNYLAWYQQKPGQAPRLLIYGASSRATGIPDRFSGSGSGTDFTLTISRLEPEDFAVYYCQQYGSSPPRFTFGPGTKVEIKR
EC50 (read off the curve) (S2hlx-Ex6): ~0.1 mg/L
